Data: the supplement of paper PMC6757056
± gives the standard deviation of the averaged measurements.

B1: library; a variant is named by its letters at N, in order (parent)
chain: GCUGUCACCGGUGUAUUACCCUAGUGGUCGACCGGUCUGAUGAGUCUNNNNNNAGACGAAACAGC

What was measured:
[1] = variants of: B1; assay: FACS-Seq fitted mean relative fluorescence mCherry/BFP without ligand (log10 relative fluorescence); ligand: hypoxanthine (xanthine aptamer); higher = higher reporter protein expression; conditions: HEK293T, ligand present: no
Method in brief: (§1)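 Reporter cells were enriched HEK293T libraries transduced by lentivirus with mCherry behind the ribozyme switch and with an EF1α-BFP marker. Following 48 h with or without ligand, they were sorted into 6 mCherry/BFP bins, and bin genomic DNA was PCR-amplified, barcoded and MiSeq-sequenced. Fluorescence was computed as the fitted normal mean of the bin counts. The fit used log10(mCherry/BFP), with scaling to five spiked-in control ribozymes.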

[2] = variants of: B1; assay: normalized RNA/DNA level with ligand (relative to sTRSVctl = 100) (log10 (% of sTRSVctl)); ligand: hypoxanthine (xanthine aptamer); higher = less ribozyme self-cleavage, higher mRNA level; conditions: ligand concentration (+) RNA-Seq: 5 mM, HEK293T, reporter: mCherry (pCS4076), ligand present: yes
Procedure: (§2)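 Hammerhead (sTRSV) ribozyme switch libraries with a ligand aptamer grafted on stem I and a randomized N4-6 loop II, cloned into the 3' UTR of mCherry and transiently transfected into HEK293T cells; RNA-Seq 72 h post transfection with ligand added 1 h before transfection; RNA read count / plasmid DNA read count normalized to the non-cleaving sTRSVctl (x100), log10; sequences with >100 DNA reads. FACS-Seq: lentiviral library sorted into 6 bins after 48 h ligand, log-normal fit mean of mCherry/BFP scaled to controls. Printed sequences are partial switch sequences.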

[3] = variants of: B1; assay: normalized RNA/DNA level without ligand (relative to sTRSVctl = 100) (log10 (% of sTRSVctl)); ligand: hypoxanthine (xanthine aptamer); higher = less ribozyme self-cleavage, higher mRNA level; conditions: HEK293T, reporter: mCherry (pCS4076), ligand present: no
Procedure: as §2

[4] = variants of: B1; assay: FACS-Seq fitted mean relative fluorescence mCherry/BFP with ligand (log10 relative fluorescence); ligand: hypoxanthine (xanthine aptamer); ligand concentration (+) FACS-Seq: 5 mM; higher = higher reporter protein expression; conditions: HEK293T, ligand present: yes
Method in brief: as §1

Row | Variant | FACS-Seq fitted mean (log10) [1] | normalized RNA/DNA level with ligand (log10) [2] | normalized RNA/DNA level without ligand (log10) [3] | FACS-Seq fitted mean (log10) [4]
1 | GAUGGA | 0.4617 ± 0.0039 | 1.913 ± 0.0011 | 1.67 ± 0.036 | 0.698 ± 0.029
2 | AGAACG | 0.48 ± 0.04 | 1.833 ± 0.015 | 1.436 ± 0.0026 | 0.756 ± 0.08
3 | GGGAGG | 0.0166 ± 0.058 | 1.76 ± 0.021 | 1.3 ± 0.03 | 0.374 ± 0.033
4 | UAUCCG | 0.207 ± 0.053 | 1.927 ± 0.019 | 1.71 ± 0.035 | 0.451 ± 0.096
5 | AUGAAC | 0.618 ± 0.07 | 1.9 ± 0.025 | 1.73 ± 0.025 | 0.583 ± 0.02
6 | ACGAAG | -0.023 ± 0.0073 | 1.49 ± 0.041 | 1.072 ± 0.0031 | 0.501 ± 0.023
7 | ACCUUG | 0.241 ± 0.0074 | 1.88 ± 0.014 | 1.6 ± 0.055 | 0.521 ± 0.04
8 | CACCUU | -0.395 ± 0.03 | 1.97 ± 0.03 | 1.87 ± 0.044 | -0.0406 ± 0.045
9 | AAUCAU | 0.507 ± 0.019 | 1.9 ± 0.027 | 1.8365 ± 0.00062 | 0.523 ± 0.057
10 | CUUCCC | -0.199 ± 0.041 | 1.9 ± 0.021 | 1.9406 ± 0.0018 | 0.0439 ± 0.038
11 | AAUUGA | -0.0788 ± 0.062 | 1.9 ± 0.041 | 1.73 ± 0.018 | -0.112 ± 0.16
12 | GAGGCG | 0.189 ± 0.012 | 1.95 ± 0.012 | 1.68 ± 0.088 | 0.597 ± 0.047
13 | CAUAAU | 0.515 ± 0.078 | 1.88 ± 0.059 | 1.793 ± 0.011 | 0.559 ± 0.061
14 | CCUUGC | 0.165 ± 0.04 | 1.95 ± 0.082 | 1.86 ± 0.027 | -0.0481 ± 0.064
15 | GGUGAG | -0.242 ± 0.013 | 1.77 ± 0.063 | 1.29 ± 0.086 | 0.303 ± 0.045
16 | GCAUGC | -0.393 ± 0.035 | 1.926 ± 0.01 | 1.74 ± 0.14 | -0.314 ± 0.05
17 | GAAAUG | 0.0921 ± 0.028 | 1.86 ± 0.075 | 1.44 ± 0.035 | 0.497 ± 0.047
18 | CCACCC | 0.2004 ± 0.0019 | 1.93 ± 0.044 | 1.93 ± 0.045 | 0.312 ± 0.0055
19 | AAGACG | -0.0743 ± 0.0055 | 1.67 ± 0.077 | 1.17 ± 0.027 | 0.587 ± 0.028
20 | GCAGGG | -0.0762 ± 0.0096 | 1.88 ± 0.028 | 1.506 ± 0.0099 | 0.479 ± 0.017
21 | UGGUCG | -0.282 ± 0.14 | 1.924 ± 0.012 | 1.79 ± 0.06 | -0.0942 ± 0.036
22 | UGGUCA | 0.761 ± 0.06 | 1.97 ± 0.043 | 1.84 ± 0.025 | 0.607 ± 0.11
23 | GCUGCG | 0.192 ± 0.0063 | 1.92 ± 0.057 | 1.6 ± 0.023 | 0.503 ± 0.0077
24 | CAUUAA | 0.176 ± 0.0055 | 1.87 ± 0.071 | 1.712 ± 0.015 | 0.306 ± 0.052

Row | Variant | FACS-Seq fitted mean (log10) [1] | normalized RNA/DNA level with ligand (log10) [2] | normalized RNA/DNA level without ligand (log10) [3] | FACS-Seq fitted mean (log10) [4]
25 | AUUUAA | 0.629 ± 0.027 | 1.901 ± 0.019 | 1.81 ± 0.051 | 0.649 ± 0.015
26 | AGCAUU | -0.328 ± 0.0053 | 1.92 ± 0.065 | 1.86 ± 0.057 | -0.19 ± 0.0097
27 | AUAAGG | 0.0649 ± 0.081 | 1.8 ± 0.019 | 1.4 ± 0.038 | 0.345 ± 0.062
28 | ACUAUA | 0.701 ± 0.099 | 1.89 ± 0.039 | 1.823 ± 0.017 | 0.693 ± 0.019
29 | CGGUAA | 0.258 ± 0.03 | 1.814 ± 0.002 | 1.27 ± 0.058 | 0.537 ± 0.027
30 | GAUGAA | 0.529 ± 0.025 | 1.886 ± 0.0083 | 1.711 ± 0.013 | 0.52 ± 0.051
31 | AUUACA | 0.157 ± 0.076 | 1.91 ± 0.033 | 1.776 ± 0.0047 | 0.407 ± 0.0063
32 | AGGUAA | 0.414 ± 0.059 | 1.87 ± 0.022 | 1.6 ± 0.06 | 0.443 ± 0.069
33 | AUACAC | 0.399 ± 0.093 | 1.915 ± 0.019 | 1.762 ± 0.0072 | 0.456 ± 0.1
34 | GCAGCC | 0.465 ± 0.1 | 1.99 ± 0.044 | 1.78 ± 0.023 | 0.532 ± 0.069
35 | UACCGG | 0.141 ± 0.038 | 1.91 ± 0.0042 | 1.63 ± 0.038 | 0.197 ± 0.15
36 | ACCUGG | 0.3055 ± 0.0017 | 1.914 ± 0.011 | 1.55 ± 0.021 | 0.817 ± 0.071
37 | CUAGAC | 0.273 ± 0.014 | 1.901 ± 0.0041 | 1.832 ± 0.011 | 0.149 ± 0.099
38 | GUCGAC | 0.245 ± 0.035 | 1.92 ± 0.031 | 1.68 ± 0.033 | 0.428 ± 0.1
39 | CUAGCA | 0.139 ± 0.058 | 1.93 ± 0.038 | 1.83 ± 0.04 | 0.177 ± 0.018
40 | AAGAAA | 0.272 ± 0.028 | 1.91 ± 0.029 | 1.605 ± 0.01 | 0.598 ± 0.015
41 | UUCACA | 0.502 ± 0.065 | 1.9 ± 0.051 | 1.88 ± 0.05 | 0.58 ± 0.026
42 | GGGCGG | 0.372 ± 0.034 | 1.9325 ± 0.00079 | 1.577 ± 0.0083 | 0.586 ± 0.017
43 | UAUUGU | 0.106 ± 0.0092 | 1.92 ± 0.044 | 1.7 ± 0.026 | 0.411 ± 0.049
44 | AGGCGG | 0.194 ± 0.017 | 1.841 ± 0.0031 | 1.354 ± 0.01 | 0.536 ± 0.039
45 | UAUACA | 0.641 ± 0.013 | 1.93 ± 0.053 | 1.854 ± 0.012 | 0.518 ± 0.019
46 | CCGGAG | 0.0637 ± 0.015 | 1.86 ± 0.11 | 1.36 ± 0.11 | 0.573 ± 0.039
47 | UAAUCU | 0.5653 ± 0.0022 | 1.96 ± 0.043 | 1.87 ± 0.061 | 0.561 ± 0.067
48 | AAGCAG | -0.122 ± 0.013 | 1.64 ± 0.044 | 1.19 ± 0.02 | 0.501 ± 0.039

Row | Variant | FACS-Seq fitted mean (log10) [1] | normalized RNA/DNA level with ligand (log10) [2] | normalized RNA/DNA level without ligand (log10) [3] | FACS-Seq fitted mean (log10) [4]
49 | GCGAGU | 0.238 ± 0.013 | 1.86 ± 0.044 | 1.23 ± 0.059 | 0.662 ± 0.069
50 | CCAGAG | 0.628 ± 0.021 | 1.95 ± 0.038 | 1.51 ± 0.066 | 0.741 ± 0.022
51 | AUGGUG | -0.243 ± 0.17 | 1.79 ± 0.062 | 1.331 ± 0.0014 | 0.0458 ± 0.031
52 | AUGGUC | 0.812 ± 0.048 | 2 ± 0.036 | 1.92 ± 0.033 | 0.6851 ± 0.0041
53 | AAACAU | 0.519 ± 0.022 | 1.86 ± 0.028 | 1.762 ± 0.0068 | 0.664 ± 0.099
54 | AAACAA | 0.4127 ± 0.0021 | 1.902 ± 0.011 | 1.73 ± 0.022 | 0.382 ± 0.014
55 | AUAUCG | 0.607 ± 0.0094 | 1.86 ± 0.065 | 1.44 ± 0.045 | 0.756 ± 0.042
56 | UACCUG | -0.0249 ± 0.053 | 1.93 ± 0.024 | 1.635 ± 0.012 | 0.0984 ± 0.069
57 | UAUUAU | 0.643 ± 0.015 | 1.93 ± 0.023 | 1.8 ± 0.028 | 0.594 ± 0.024
58 | AACACG | 0.0502 ± 0.00077 | 1.85 ± 0.046 | 1.4 ± 0.045 | 0.412 ± 0.037
59 | CAAAAC | 0.248 ± 0.079 | 1.9 ± 0.035 | 1.78 ± 0.028 | 0.0907 ± 0.058
60 | AGGAGU | 0.142 ± 0.026 | 1.8 ± 0.024 | 1.37 ± 0.03 | 0.537 ± 0.073
61 | AGAUGG | -0.23 ± 0.04 | 1.84 ± 0.035 | 1.36 ± 0.019 | 0.0811 ± 0.0062
62 | AUAUAC | 0.568 ± 0.087 | 1.88 ± 0.019 | 1.8 ± 0.069 | 0.572 ± 0.028
63 | GGUUAG | 0.17 ± 0.041 | 1.726 ± 0.017 | 1.383 ± 0.0095 | 0.458 ± 0.03
64 | UAGCGG | 0.335 ± 0.051 | 1.875 ± 0.017 | 1.542 ± 0.011 | 0.534 ± 0.035
65 | UUCCAC | 0.451 ± 0.048 | 1.97 ± 0.077 | 1.88 ± 0.027 | 0.5314 ± 0.0026
66 | ACGGGC | 0.13 ± 0.011 | 1.94 ± 0.035 | 1.79 ± 0.035 | 0.4948 ± 0.0031
67 | ACGGGU | 0.0468 ± 0.038 | 1.79 ± 0.025 | 1.33 ± 0.07 | 0.569 ± 0.011
68 | GUACGG | -0.0891 ± 0.011 | 1.893 ± 0.016 | 1.4 ± 0.048 | 0.337 ± 0.062
69 | AAGAUG | 0.0294 ± 0.013 | 1.64 ± 0.087 | 1.09 ± 0.045 | 0.578 ± 0.025
70 | AAGAUA | 0.32 ± 0.064 | 1.89 ± 0.031 | 1.63 ± 0.022 | 0.339 ± 0.1
71 | GUGGUA | 0.478 ± 0.079 | 1.95 ± 0.026 | 1.759 ± 0.016 | 0.585 ± 0.082
